T1: GST-Hec1^1–196 (UniProt O14777 1-196)
T1 construct: Hec1 (highly expressed in cancer 1)
T1 sequence (looked up): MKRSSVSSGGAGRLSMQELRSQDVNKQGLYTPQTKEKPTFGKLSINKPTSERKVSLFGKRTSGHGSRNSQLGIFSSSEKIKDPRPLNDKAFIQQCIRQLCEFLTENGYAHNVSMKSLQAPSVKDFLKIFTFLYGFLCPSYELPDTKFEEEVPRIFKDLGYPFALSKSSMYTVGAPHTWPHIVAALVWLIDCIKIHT

T2: GST-Nuf2^1–169 (UniProt Q9BZD4 1-169)
T2 construct: Nuf2 (nuclear filament-containing protein 2), residues 1-169, with the calponin-homology domain
T2 sequence (looked up): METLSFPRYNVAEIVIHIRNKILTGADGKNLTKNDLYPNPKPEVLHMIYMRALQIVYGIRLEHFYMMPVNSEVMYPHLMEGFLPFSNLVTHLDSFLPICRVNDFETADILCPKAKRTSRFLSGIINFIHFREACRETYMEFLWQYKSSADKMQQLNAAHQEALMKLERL


Columns and labels:
[1] = target: T1, GST-Hec1^1–196; assay: pull-down; GST-Hec1^1–196, GST-Hec1^1–196-9D or GST-Nuf2^1–169 on agarose beads as affinity matrices; MBP-tagged Mps1 truncations purified from E. coli; SDS-PAGE and anti-MBP blot; conditions: both partners purified
[2] = target: T2, GST-Nuf2^1–169; assay: as above; conditions: both partners purified
[3] = target: the molecule itself; assay: pull-down; GST-Mps1^C342-WT, GST-Mps1^C342-KD or GST-Mps1^PK-KD on agarose beads; purified 6× His-tagged Mps1^C342-WT or -KD; SDS-PAGE and anti-6× His blot (Figure 3C, Supplementary Figure S4E)

binding result [1]	binding result [2]	Binder	binding result [3]
binds	binds	MBP-tagged Mps1 tetratricopeptide repeat domain (TPR, amino acids 62–192) (domain or fragment, human, UniProt P33981 62-192, looked up, Mps1, human, tetratricopeptide repeat domain, amino acids 62-192; also called Mps1^TPR; source: Escherichia coli, purified) PEDWLSLLLKLEKNSVPLSDALLNKLIGRYSQAIEALPPDKYGQNESFARIQVRFAELKAIQEPDDARDYFQMARANCKKFAFVHISFAQFELSQGNVKKSKQLLQKAVERGAVPLEMLEIALRNLNLQKK	–
binds	binds	MBP-tagged Mps1 C-terminal extension (CTE, amino acids 193–300) (domain or fragment, human, UniProt P33981 193-300, looked up, Mps1, human, C-terminal extension of N300, amino acids 193-300; source: Escherichia coli, purified) QLLSEEEKKNLSASTVLTAQESFSGSLGHLQNRNNSCDSRGQTTKARFLYGENMPPQDAEIGYRNSLRQTNKTKQSCPFGRVPVNLLNSPDCDVKTDDSVVPCFMKRQ	–
–	–	Mps1^C342-WT fragment (amino acids 516–857), GST-tagged or 6× His-tagged (domain or fragment, human, UniProt P33981 516-857, looked up, Mps1, human, amino acids 516-857: protein kinase domain (516-792) and C-tail (793-857); Two differently tagged copies of one fragment: the GST copy was the bait on beads, the 6× His copy the prey; each chain bears only one of the two tags; also called GST-Mps1^C342-WT; 6× His-Mps1^C342-WT; source: recombinant, purified) ECISVKGRIYSILKQIGSGGSSKVFQVLNEKKQIYAIKYVNLEEADNQTLDSYRNEIAYLNKLQQHSDKIIRLYDYEITDQYIYMVMECGNIDLNSWLKKKKSIDPWERKSYWKNMLEAVHTIHQHGIVHSDLKPANFLIVDGMLKLIDFGIANQMQPDTTSVVKDSQVGTVNYMPPEAIKDMSSSRENGKSKSKISPKSDVWSLGCILYYMTYGKTPFQQIINQISKLHAIIDPNHEIEFPDIPEKDLQDVLKCCLKRDPKQRISIPELLAHPYVQIQTHPVNQMAKGTTEEMKYVLGQLVGLNSPNSILKAAKTLYEHYSGGESHNSSSSKTFEKKRGKK	binds
